Article doi:10.1101/2022.01.05.475064

T1: NtHY5 (6xHis-HY5) (Nicotiana tabacum, UniProt A0A1S3YJY6 1-158)
T1 sequence: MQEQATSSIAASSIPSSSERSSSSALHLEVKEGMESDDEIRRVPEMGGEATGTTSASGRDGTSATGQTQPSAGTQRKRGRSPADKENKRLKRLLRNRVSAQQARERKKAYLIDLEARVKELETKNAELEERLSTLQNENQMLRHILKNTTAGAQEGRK


Molecular target: T1, NtHY5 (6xHis-HY5)
Experiment: EMSA

Binder | binding result
NtODC P1 (G-BOX I) (dsDNA) DNA 1: ATCTGATCACCTAACGTGACCAAGAAAATA DNA 2: TATTTTCTTGGTCACGTTAGGTGATCAGAT | binds
NtODC Mut P1 (dsDNA) DNA 1: ATCTGATCACCTAATATCACCAAGAAAATA DNA 2: TATTTTCTTGGTGATATTAGGTGATCAGAT | no binding
NtQPT P1 (G-BOX I) (dsDNA) DNA 1: CATAAATAAAACGTGTTCAGCTACTAAAAC DNA 2: GTTTTAGTAGCTGAACACGTTTTATTTATG | binds
NtPMT P2 (G-BOX II) (dsDNA) DNA 1: TACTGTTTCCGCAACGTGCTCTTCATCAGG DNA 2: CCTGATGAAGAGCACGTTGCGGAAACAGTA | binds
NtQPT Mut P1 (dsDNA) DNA 1: CATAAATAAAATTCATTCAGCTACTAAAAC DNA 2: GTTTTAGTAGCTGAATGAATTTTATTTATG | no binding
NtPMT P1 (G-BOX I) (dsDNA) DNA 1: CAGTCTAACCATGCACGTTGTAATGATTTT DNA 2: AAAATCATTACAACGTGCATGGTTAGACTG | binds
NtMYB12 P2 (G-BOX II) (dsDNA) DNA 1: AGTCAACTTTGCAACGTAAAAGTCCACACA DNA 2: TGTGTGGACTTTTACGTTGCAAAGTTGACT | binds
NtMYB12 P1 (G-BOX I) (dsDNA) DNA 1: AACTTGAAATAATACGTTAAAAGATAAAA DNA 2: TTTTATCTTTTAACGTATTATTTCAAGT | binds
NtPMT Mut P2 (G-mut II) (dsDNA) DNA 1: TACTGTTTCCGCAATCTTCTCTTCATCAGG DNA 2: CCTGATGAAGAGAAGATTGCGGAAACAGTA | no binding
NtPMT Mut P1 (G-mut I) (dsDNA) DNA 1: CAGTCTAACCATGATTAATGTAATGATTTT DNA 2: AAAATCATTACATTAATCATGGTTAGACTG | no binding
